# Measured values reported in publication PMC4580590.
# B1: DLDH744 (Sporolactobacillus inulinus CASD) (protein)
# chain: MKIIMFSVRDDEEAAIREWEKKTGVQVDINRLELDAETAQLTKGYDGIVIQQRSHISNPAVYETLQKNGLRQLTSRTAGYDMIDLEQASERGLVVTNVPAYSPNSVAELALTQTMRLIRNLPLFDARGAEQDFRWAGLMAREIRSLTVGIIGAGRIGGTVARLFKALGATVIANDIVERVELKDIVTYVSKEELLQAADVVTLHVPLMDSTTQLIDADALALMKNDAVLINASRGPVVDTDALIAALQNKQIAGAALDTLNGEEHFFNQDLCGKELPSEQLKVLRTLPNVLITPHIGFYTNKAVQNMVEISLNDVLAILKTGTSEHQLNKVAVEN
# notes: full length, 335 residues, homodimer; vector pET-28a(+), E. coli BL21(DE3); purified
# Experiments:
# [1] = molecular target: D-lactate dehydrogenase from Sporolactobacillus inulinus CASD (DLDH744) (Sporolactobacillus inulinus CASD); assay: crystal structure; DLDH744 in complex with NAD+; molecular replacement, refined at 3.15 Å; homo-dimer in one asymmetric unit
# purified protein [2] = substrate: CC(=O)C(=O)O; assay: purified protein; assay type: biochemical, Sporolactobacillus inulinus; conditions: 100 mM PBS pH 5.5, 30°C, 0.2 mM NADH or NADPH (which one not told)
# purified protein [3] = substrate: N[C@@H](CCC(=O)O)C(=O)O; assay: purified protein; assay type: biochemical, Sporolactobacillus inulinus; conditions: 100 mM PBS pH 5.5, 30°C, oxidative deamination, cofactor of the kinetic run not clearly told (0.2 mM NAD(P)+ in activity assay)
# purified protein [4] = substrate: O=C(O)C(=O)Cc1ccccc1; assay: purified protein; assay type: biochemical, Sporolactobacillus inulinus; conditions: 100 mM PBS pH 5.5, 30°C, 0.2 mM NADH or NADPH (which one not told)
stoichiometry N [1],Molecule,Km (purified protein [2]) [mM],kcat (purified protein [2]) [min⁻¹],Km (purified protein [3]) [mM],kcat (purified protein [3]) [min⁻¹],Km (purified protein [4]) [mM]
2,D-lactate dehydrogenase from Sporolactobacillus inulinus CASD (DLDH744) (enzyme),–,–,–,–,–
–,B1,3.4 ± 0.02,512.2 ± 7.6,5.7 ± 0.09,22.3 ± 0.1,3.32 ± 0.08
